One assay addresses T1, human VEGFR1-Fc chimera (human, UniProt P17948 27-756).
T1 construct: bought (R&D Systems); also called hVEGFR1-Fc
The assay is described as follows: ELISA, coated KLH conjugated VEGF165. On the technique in general: An ELISA detects its analyte on a solid surface through an enzyme-linked reagent.

A further assay addresses T2, mouse VEGFR2-huFc (mouse, UniProt P35918 20-762, limits assumed).
T2 construct: also called mVEGFR2-huFc; mVEGFR2-hFc
The assay can be described thus: mVEGF164/mVEGFR2-hFc competition AlphaScreen, unlabelled mVEGF164 as competitor.

Broadly, the IC50 is the point on the concentration scale where inhibition reaches its midpoint.

T1 sequence (P17948 27-756, change not shown): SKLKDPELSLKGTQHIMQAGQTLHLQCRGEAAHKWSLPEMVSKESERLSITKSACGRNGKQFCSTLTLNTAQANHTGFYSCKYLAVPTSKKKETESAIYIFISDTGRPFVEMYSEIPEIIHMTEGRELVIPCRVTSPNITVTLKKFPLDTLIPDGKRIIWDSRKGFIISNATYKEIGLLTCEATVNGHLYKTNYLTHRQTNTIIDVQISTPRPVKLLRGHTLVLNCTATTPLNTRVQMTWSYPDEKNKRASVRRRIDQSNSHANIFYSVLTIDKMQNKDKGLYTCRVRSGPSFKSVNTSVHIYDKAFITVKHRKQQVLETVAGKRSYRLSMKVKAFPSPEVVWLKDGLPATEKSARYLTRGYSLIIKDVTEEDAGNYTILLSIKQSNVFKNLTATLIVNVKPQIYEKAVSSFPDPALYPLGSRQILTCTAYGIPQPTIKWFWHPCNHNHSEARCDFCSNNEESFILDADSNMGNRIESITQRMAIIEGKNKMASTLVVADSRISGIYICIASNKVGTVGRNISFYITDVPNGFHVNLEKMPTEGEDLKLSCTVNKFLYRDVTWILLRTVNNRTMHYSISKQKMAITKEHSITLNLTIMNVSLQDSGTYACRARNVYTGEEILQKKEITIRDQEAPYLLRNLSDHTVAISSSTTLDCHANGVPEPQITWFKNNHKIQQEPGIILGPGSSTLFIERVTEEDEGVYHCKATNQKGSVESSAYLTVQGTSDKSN
T2 sequence (P35918 20-762 limits assumed): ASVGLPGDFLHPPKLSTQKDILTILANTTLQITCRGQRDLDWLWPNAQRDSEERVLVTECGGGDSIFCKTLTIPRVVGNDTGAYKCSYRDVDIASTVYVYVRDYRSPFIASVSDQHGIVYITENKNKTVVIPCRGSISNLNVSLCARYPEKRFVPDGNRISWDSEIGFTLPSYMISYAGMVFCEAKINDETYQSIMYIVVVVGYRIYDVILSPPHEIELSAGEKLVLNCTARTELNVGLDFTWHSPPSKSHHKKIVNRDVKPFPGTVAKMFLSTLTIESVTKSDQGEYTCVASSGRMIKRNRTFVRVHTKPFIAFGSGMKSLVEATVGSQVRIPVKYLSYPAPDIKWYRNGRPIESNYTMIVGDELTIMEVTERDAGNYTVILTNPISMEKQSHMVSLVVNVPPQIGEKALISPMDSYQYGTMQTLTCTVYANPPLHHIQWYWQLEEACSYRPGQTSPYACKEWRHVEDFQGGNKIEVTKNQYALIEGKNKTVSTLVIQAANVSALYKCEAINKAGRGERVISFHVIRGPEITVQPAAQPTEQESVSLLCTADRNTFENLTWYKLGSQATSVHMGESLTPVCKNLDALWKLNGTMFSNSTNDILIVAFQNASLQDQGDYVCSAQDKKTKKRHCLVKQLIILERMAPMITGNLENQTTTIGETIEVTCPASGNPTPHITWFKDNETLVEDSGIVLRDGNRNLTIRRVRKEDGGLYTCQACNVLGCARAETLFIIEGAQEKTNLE

B1: KLH conjugated VEGF165 (ligand, human, UniProt P15692-4 27-191, looked up)
chain: APMAEGGGQNHHEVVKFMDVYQRSYCHPIETLVDIFQEYPDEIEYIFKPSCVPLMRCGGCCNDEGLECVPTEESNITMQIMRIKPHQGQHIGEMSFLQHNKCECRPKKDRARQENPCGPCSERRKHLFVQDPQTCKCSCKNTDSRCKARQLELNERTCRCDKPRR
modifications: conjugated to mariculture keyhole limpet hemocyanin (mcKLH) with EDC
notes: also called VEGF165-KLH
B1: in the assay with human VEGFR1-Fc chimera, the binding result is given as “binds”.

B2: recombinant mouse VEGF164 (ligand, UniProt Q00731-2 27-190, looked up)
chain: APTTEGEQKSHEVIKFMDVYQRSYCRPIETLVDIFQEYPDEIEYIFKPSCVPLMRCAGCCNDEALECVPTSESNITMQIMRIKPHQSQHIGEMSFLQHSRCECRPKKDRTKPENHCEPCSERRKHLFVQDPQTCKCSCKNTDSRCKARQLELNERTCRCDKPRR
notes: biotinylated in the mVEGFR2 AlphaScreen; also called rmVEGF164; mVEGF164
Turning to B2, the IC50 with mouse VEGFR2-huFc is 0.05 nM.
